This note sets out measurements from article PMC3938430, “Biochemical Characterization of a Haloalkane Dehalogenase DadB from Alcanivorax dieselolei B-5” (PLoS ONE, 2014).

Common to all, as to assay: steady-state kinetics, gas chromatography (FID)
In one series the target is T1, DadB (Alloalcanivorax dieselolei, UniProt K0CAI2).
T1 construct: gene B5T_00392; HLD-II subfamily, nucleophile D108
It is filed as biochemical. Particulars: 100 mM glycine buffer, pH 8.6, 37°C; substrate self-inhibition constant. The text has this:
(§1) steady-state kinetics, gas chromatography (FID) on DadB

A further series deals with N#CCCCBr. It is filed as biochemical, Alloalcanivorax dieselolei. Particulars: 100 mM glycine buffer, pH 8.6, 37°C, fit with substrate inhibition.
Description: as §1

The next series deals with T2, C=C(C)CCl.
T2 construct: HLD-II subfamily, nucleophile D108
It is filed as biochemical, Alloalcanivorax dieselolei. Particulars: 100 mM glycine buffer, pH 8.6, 37°C.
Description: as §1

For the next series, the system named is CCCCCl. It is filed as biochemical, Alloalcanivorax dieselolei. Particulars: 100 mM glycine buffer, pH 8.6, 37°C.
Description: as §1

In another series the test system is T3, BrCCBr.
T3 construct: HLD-II subfamily, nucleophile D108
It is filed as biochemical, Alloalcanivorax dieselolei. Particulars: 100 mM glycine buffer, pH 8.6, 37°C.
Description: as §1

In another series the test system is T4, C=C(Cl)CCl.
T4 construct: HLD-II subfamily, nucleophile D108
It is filed as biochemical, Alloalcanivorax dieselolei. Particulars: 100 mM glycine buffer, pH 8.6, 37°C.
Description: as §1

The next series concerns BrCCCBr. It is filed as biochemical, Alloalcanivorax dieselolei. Particulars: 100 mM glycine buffer, pH 8.6, 37°C.
Description: as §1

Take `N#CCCCBr` [4-bromobutanenitrile]: the “k i” value on DadB came out at 17.93 ± 1.97 mM.

A word on the Km: it is the concentration of substrate that gives half-maximal velocity. Broadly, the kcat is the number of substrate molecules converted per active site and unit of time at saturation. What is called kcat/Km is the second-order rate constant that governs catalysis at low substrate concentration. Take DadB (Alloalcanivorax dieselolei B5): the Km in the series with N#CCCCBr was found to be 8.47 ± 1.27 mM; with C=C(C)CCl, 11.33 ± 0.99 mM; in the series with CCCCCl, 4.88 ± 0.35 mM; in the series with BrCCBr it was 8.70 ± 0.44 mM; in the series on C=C(Cl)CCl, 15.06 ± 1.37 mM; in the series with BrCCCBr, 0.82 ± 0.04 mM. For the same compound, the kcat with N#CCCCBr turned out to be 30.8 ± 2.49 s⁻¹; in the series with C=C(C)CCl, 34.3 ± 1.99 s⁻¹; in the series with CCCCCl, 1.17 ± 0.1 s⁻¹; in the series with BrCCBr, 17.9 ± 0.5 s⁻¹; with C=C(Cl)CCl, 20.1 ± 1.09 s⁻¹; with BrCCCBr it was 13.4 ± 0.99 s⁻¹. The kcat/Km was determined as 3640 M⁻¹ s⁻¹ in the series on N#CCCCBr; 3020 M⁻¹ s⁻¹ with C=C(C)CCl; 240 M⁻¹ s⁻¹ with CCCCCl; 2060 M⁻¹ s⁻¹ in the series on BrCCBr; 1330 M⁻¹ s⁻¹ in the series with C=C(Cl)CCl; 16400 M⁻¹ s⁻¹ in the series on BrCCCBr.
